Laboratory results from IntAct's records for PubMed 29039417.

B1: Isoform 2 of Bardet-Biedl syndrome 7 protein (Homo sapiens), Q8IWZ6-2 (parent)
chain: MDLILNRMDYLQVGVTSQKTMKLIPASRHRATQKVVIGDHDGVVMCFGMKKGEAAAVFKTLPGPKIARLELGGVINTPQEKIFIAAASEIRGFTKRGKQFLSFETNLTESIKAMHISGSDLFLSASYIYNHYCDCKDQHYYLSGDKINDVICLPVERLSRITPVLACQDRVLRVLQGSDVMYAVEVPGPPTVLALHNGNGGDSGEDLLFGTSDGKLALIQITTSKPVRKWEIQNEKKRGGILCIDSFDIVGDGVKDLLVGRDDGMVEVYSFDNANEPVLRFDQMLSESVTSIQGGCVGKDSYDEIVVSTYSGWVTGLTTEPIHKESGPGEELKINQEMQNKISSLRNELEHLQYKVLQERENYQQSSQSSKAKSAVPSFGINDKFTLNKDDASYSLILEVQTAIDNVLIQSDVPIDLLDVDKNSAVVSFSSCDSESNDNFLLATYRCQADTTRLELKIRSIEGQYGTLQAYVTPRIQPKTCQVRQYHIKPLSLHQRTHFIDHDRPMNTLTLTGQFSFAEVHSWVVFCLPEVPEKPPAGECVTFYFQNTFLDTQLESTYRKGEGVFKSDNISTISILKDVLSKEATKRKINLNISYEINEVSVKHTLKLIHPKLEYQLLLAKKVQLIDALKELQIHEGNTNFLIPEYHCILEEADHLQEEYKKQPAHLERLYG
partner: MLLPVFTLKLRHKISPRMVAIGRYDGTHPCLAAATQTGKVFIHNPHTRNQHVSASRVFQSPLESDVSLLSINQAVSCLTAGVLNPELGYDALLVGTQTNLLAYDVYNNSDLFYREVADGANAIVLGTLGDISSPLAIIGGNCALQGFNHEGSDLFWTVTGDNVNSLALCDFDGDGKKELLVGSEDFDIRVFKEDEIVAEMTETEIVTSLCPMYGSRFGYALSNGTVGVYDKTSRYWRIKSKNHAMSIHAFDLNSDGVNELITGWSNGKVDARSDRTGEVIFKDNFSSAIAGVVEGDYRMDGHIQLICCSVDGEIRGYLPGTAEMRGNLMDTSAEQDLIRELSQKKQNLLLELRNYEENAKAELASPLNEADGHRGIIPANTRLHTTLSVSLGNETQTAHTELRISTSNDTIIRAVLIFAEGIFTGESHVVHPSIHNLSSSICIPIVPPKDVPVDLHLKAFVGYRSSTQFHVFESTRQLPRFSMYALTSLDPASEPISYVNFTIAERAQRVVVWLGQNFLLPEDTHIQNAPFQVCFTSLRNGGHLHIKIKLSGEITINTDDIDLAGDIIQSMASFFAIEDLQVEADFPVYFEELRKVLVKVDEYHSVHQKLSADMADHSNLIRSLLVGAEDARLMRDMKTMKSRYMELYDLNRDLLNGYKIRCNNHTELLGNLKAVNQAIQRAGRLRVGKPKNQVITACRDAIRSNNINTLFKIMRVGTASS

Variants of: B1
Conditions: with bbs2_human BBS2, Q9BXC9

Variant | effect of a mutation on the interaction
S344K | with no effect
I334E | with no effect
I334K | with no effect
I334A | with no effect
G327A | with no effect
G327K | with no effect
G327E | with no effect
L332E | with no effect
L332A | with no effect
L332K | with no effect
Q353E | with no effect
Q353A | with no effect
Q353K | with no effect
Q339A | with no effect
Q339E | with no effect
Q339K | with no effect
E330A | with no effect
E330K | with no effect
N347E | with no effect
N347K | with no effect
N347A | with no effect
N340K | with no effect
N340E | with no effect

Variant | effect of a mutation on the interaction
N340A | with no effect
R346A | with no effect
R346K | with no effect
R346E | with no effect
K333E | with no effect
K333A | with no effect
E350A | with no effect
E350K | with no effect
R360K | with no effect
R360E | with no effect
R360A | with no effect
L357A | with no effect
L357K | with no effect
L357E | with no effect
E331A | with no effect
E331K | with no effect
L352E | with no effect
L352K | with no effect
L352A | with no effect
E348K | with no effect
E348A | with no effect
Y354K | with no effect
Y354A | with no effect
